This note sets out measurements from patent publication US20250346644A1 (LATTICON SUZHOU BIOPHARMACEUTICALS, published 2025).

In assay [1] the target is T1, mIL2-his (mouse, UniProt P04351 21-169).
T1 construct: also called wild-type mouse IL-2 (with a his-tag); not shown: his-tag
T1 sequence (looked up): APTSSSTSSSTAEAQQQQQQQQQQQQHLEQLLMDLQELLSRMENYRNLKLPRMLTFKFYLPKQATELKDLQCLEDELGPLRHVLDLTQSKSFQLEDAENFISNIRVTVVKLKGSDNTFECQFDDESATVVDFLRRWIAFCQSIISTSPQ
Kind of assay: BLI ForteBio, Ab on Protein A sensor.

Assay [2] deals with T2, hIL2-DM-his (human, UniProt P60568 21-153).
T2 construct: expressed in ExpiCHO-S cells, nickel-column purified; also called hIL-2 mutein containing two point mutations K64G and N90R (with a his-tag); not shown: his-tag
Kind of assay: BLI ForteBio, Ab on Protein A sensor.

Assay [3] has as its target T3, hIL2-TM-his (human, UniProt P60568 21-153).
T3 construct: also called hIL-2 mutein containing three point mutations K64G, N90R and M104E (with a his-tag); not shown: his-tag
T3 chain: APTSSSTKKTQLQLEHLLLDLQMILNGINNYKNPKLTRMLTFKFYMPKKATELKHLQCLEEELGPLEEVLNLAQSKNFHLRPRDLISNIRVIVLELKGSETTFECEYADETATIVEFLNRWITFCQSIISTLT
Kind of assay: BLI ForteBio, Ab on Protein A sensor.

In assay [4] the target is T2, hIL2-DM-his. The experiment in a line: BLI ForteBio, Ab on Protein A sensor. This is another data set of the same source.
Target sequence in this assay (P60568 21-153 K84G/N110R): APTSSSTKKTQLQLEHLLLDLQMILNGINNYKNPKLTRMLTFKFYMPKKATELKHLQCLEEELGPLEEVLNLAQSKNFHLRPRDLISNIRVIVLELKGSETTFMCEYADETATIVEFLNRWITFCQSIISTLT
The target in assay [5] is T1, mIL2-his. Kind of assay: ELISA, antibody captured by anti-human IgG, mIL2-his titrated.
The target of assay [6] is T4, hIL2-his (human, UniProt P60568 21-153).
T4 construct: the construct is not described further; not shown: his-tag
Kind of assay: ELISA (section 2.1.1): antibody (13.3 nM) captured on coated goat anti-human IgG, hIL2-his titrated (the x axis is the antigen concentration), HRP anti-6xHis.

Like-named read-outs stand apart in the source and are kept apart here.

B1: hS4B6-H6K3 (antibody, V domains shown)
VH: QVQLVQSGAEVKKPGATVKISCKVSGDTITAYYLHWVRQAPGQGLEWIGRIDPEDDSTKYAENFKNRVTITADTSTNTAYMELSSLRSEDTAVYYCTTVTFYYSRELRWFAYWGQGTLVTVSS
VL: DIVLTQSPATLSLSPGERATLSCQASQDIGNYLSWYQQKPGQAPRLLIYSATSLADGIPARFSGSRSGTDYTLTISSLEPEDFAVYYCLQHYSTPYTFGQGTKLEIK
notes: full antibody
For B1, the Kd in assay [1] came out at 1 nM; in assay [2], 45.3 nM; in assay [3], 24 nM; in assay [4], 46.9 nM. Moreover, the koff was determined as 0.00018 s⁻¹ in assay [1], 0.01 s⁻¹ in assay [2], 0.00569 s⁻¹ in assay [3] and 0.0193 s⁻¹ in assay [4]. Moreover, the kon in assay [1] came to 179000 M⁻¹ s⁻¹; in assay [2] it was 222000 M⁻¹ s⁻¹; in assay [3] it was 237000 M⁻¹ s⁻¹; in assay [4], 413000 M⁻¹ s⁻¹. Moreover, the “Binding Response (nm)” value in assay [4] amounted to 0.133 nm. Further, in assay [5], a half-maximal effect (EC50) was put at 0.0183 µg/mL. In addition, in assay [6], the binding result is listed as “no binding (tested: 2 µg/mL)”.
